From patent US20090169520A1 (YISSUM RESEARCH DEVELOPMENT COMPANY OF THE HEBREW …, published 2009)

Molecular target: synthetic Aβ (1-40) peptide (Biosource) (UniProt P05067 672-711)
Assay: cell-based or functional assay

synthetic Aβ (1-40) peptide (Biosource), sequence (P05067 672-711 limits assumed): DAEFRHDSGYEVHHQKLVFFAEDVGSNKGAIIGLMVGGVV

| Lag (fold change) of Aβ fibrillation against no addition | Lag (h) before onset of Aβ fibrillation | Rate (fold change) of Aβ fibrillation against no addition | Binder |
| --- | --- | --- | --- |
| 1.5 fold | 5.9 h | 0.7 fold | ASP63 (synthetic AChE-S C-terminal peptide, residues 548-610 of hAChE) (peptide) peptide: PLEVRRGLRAQACAFWNRFLPKLLSATDTLDEAERQWKAEFHRWSSYMVHWKNQFDHYSKQDR |
| 1.1 fold | 4.4 h | 0.8 fold | DTLDEAERQWKAEFHRWSSYMVHWKNQFDHYSKQDRCSDL [ASP40 (synthetic AChE-S C-terminal peptide, residues 575-614 of hAChE)] |
| > 1.9 fold | > 7.5 h | 0.4 fold | GNIDEAEWEWKAGFHRWNNYMMDWKNQFNDYTSKKESCVGL [BSP41 (synthetic BChE C-terminal peptide, residues 562-602 of hBChE)] |
